Data published in article PMC5709467, “Solution structure and interaction with copper in vitro and in living cells of the first BIR domain of XIAP” (Scientific Reports, 2017).

B1: Wild-type BIR1 (1-105 aa), first BIR domain of XIAP (domain or fragment, human, UniProt P98170 1-105, looked up)
chain: MTFNSFEGSKTCVPADINKEEEFVEEFNRLKTFANFPSGSPVSASTLARAGFLYTGEGDTVRCFSCHAAVDRWQYGDSAVGRHRKVSPNCRFINGFYLENSATQS
notes: 15N- or 15N,13C-labelled for NMR; cloned into pET-3a; In the oxidised state C12 of the two subunits form a disulfide bond; also called WT BIR1

How the values were obtained:
[1] = target: D71N/R72E mutant of BIR1 (1-105) of XIAP (human) (UniProt P98170); assay: SEC; oxidised protein (C12 disulfide), analytical gel filtration on Superdex 75 10/200 GL, 20 mM Bis-Tris pH 6.5
[2] = target: D71N/R72E mutant of BIR1 (1-105) of XIAP (human) (UniProt P98170); assay: MALDI-TOF mass spectrometry; oxidised D71N/R72E BIR1; covalent (disulfide-linked) dimer; compared with a sample treated with DTT
[3] = target: the molecule itself; assay: NMR 15N relaxation (R2/R1, rotational correlation time); reduced protein, about 0.3 mM, 20 mM Bis-Tris pH 6.5, 298 K

| Molecule | stoichiometry N [1] | stoichiometry N [2] | stoichiometry N [3] |
| --- | --- | --- | --- |
| D71N/R72E mutant of BIR1 (1-105) of XIAP (from UniProt P98170 1-105) (domain or fragment) | 2 | 2 |  |
| B1 |  |  | 2 |
